Laboratory results reported in article PMC9348906 (Science (New York, N.Y.), 2022).
Several values for one entry are separate records, joined by “and”; a condition that tells them apart may be missing. Identical values can stand only once. Like-named read-outs stand apart in the source and are kept apart here.

B1: NUP358^1–832 (domain or fragment, human, UniProt P49792 1-832, looked up)
chain: MRRSKADVERYIASVQGSTPSPRQKSMKGFYFAKLYYEAKEYDLAKKYICTYINVQERDPKAHRFLGLLYELEENTDKAVECYRRSVELNPTQKDLVLKIAELLCKNDVTDGRAKYWLERAAKLFPGSPAIYKLKEQLLDCEGEDGWNKLFDLIQSELYVRPDDVHVNIRLVEVYRSTKRLKDAVAHCHEAERNIALRSSLEWNSCVVQTLKEYLESLQCLESDKSDWRATNTDLLLAYANLMLLTLSTRDVQESRELLQSFDSALQSVKSLGGNDELSATFLEMKGHFYMHAGSLLLKMGQHSSNVQWRALSELAALCYLIAFQVPRPKIKLIKGEAGQNLLEMMACDRLSQSGHMLLNLSRGKQDFLKEIVETFANKSGQSALYDALFSSQSPKDTSFLGSDDIGNIDVREPELEDLTRYDVGAIRAHNGSLQHLTWLGLQWNSLPALPGIRKWLKQLFHHLPHETSRLETNAPESICILDLEVFLLGVVYTSHLQLKEKCNSHHSSYQPLCLPLPVCKQLCTERQKSWWDAVCTLIHRKAVPGNVAKLRLLVQHEINTLRAQEKHGLQPALLVHWAECLQKTGSGLNSFYDQREYIGRSVHYWKKVLPLLKIIKKKNSIPEPIDPLFKHFHSVDIQASEIVEYEEDAHITFAILDAVNGNIEDAVTAFESIKSVVSYWNLALIFHRKAEDIENDALSPEEQEECKNYLRKTRDYLIKIIDDSDSNLSVVKKLPVPLESVKEMLNSVMQELEDYSEGGPLYKNGSLRNADSEIKHSTPSPTRYSLSPSKSYKYSPKTPPRWAEDQNSLLKMICQQVEAIKKEMQELKLNS
B2: NUP358^NTD (domain or fragment, human, UniProt P49792 1-752, looked up)
chain: MRRSKADVERYIASVQGSTPSPRQKSMKGFYFAKLYYEAKEYDLAKKYICTYINVQERDPKAHRFLGLLYELEENTDKAVECYRRSVELNPTQKDLVLKIAELLCKNDVTDGRAKYWLERAAKLFPGSPAIYKLKEQLLDCEGEDGWNKLFDLIQSELYVRPDDVHVNIRLVEVYRSTKRLKDAVAHCHEAERNIALRSSLEWNSCVVQTLKEYLESLQCLESDKSDWRATNTDLLLAYANLMLLTLSTRDVQESRELLQSFDSALQSVKSLGGNDELSATFLEMKGHFYMHAGSLLLKMGQHSSNVQWRALSELAALCYLIAFQVPRPKIKLIKGEAGQNLLEMMACDRLSQSGHMLLNLSRGKQDFLKEIVETFANKSGQSALYDALFSSQSPKDTSFLGSDDIGNIDVREPELEDLTRYDVGAIRAHNGSLQHLTWLGLQWNSLPALPGIRKWLKQLFHHLPHETSRLETNAPESICILDLEVFLLGVVYTSHLQLKEKCNSHHSSYQPLCLPLPVCKQLCTERQKSWWDAVCTLIHRKAVPGNVAKLRLLVQHEINTLRAQEKHGLQPALLVHWAECLQKTGSGLNSFYDQREYIGRSVHYWKKVLPLLKIIKKKNSIPEPIDPLFKHFHSVDIQASEIVEYEEDAHITFAILDAVNGNIEDAVTAFESIKSVVSYWNLALIFHRKAEDIENDALSPEEQEECKNYLRKTRDYLIKIIDDSDSNLSVVKKLPVPLESVKEMLNSVMQE
B3: NUP358^OE (domain or fragment, human, UniProt P49792 802-832, looked up)
chain: RWAEDQNSLLKMICQQVEAIKKEMQELKLNS

Experiments:
Assay in all cases: SEC-MALS
[1] = biological target: C. thermophilum coat nup complex (CNC) (C. thermophilum) (UniProt G0S2X1)
Chain of C. thermophilum coat nup complex (CNC) (C. thermophilum) (G0S2X1 whole entry, looked up, one chain of several): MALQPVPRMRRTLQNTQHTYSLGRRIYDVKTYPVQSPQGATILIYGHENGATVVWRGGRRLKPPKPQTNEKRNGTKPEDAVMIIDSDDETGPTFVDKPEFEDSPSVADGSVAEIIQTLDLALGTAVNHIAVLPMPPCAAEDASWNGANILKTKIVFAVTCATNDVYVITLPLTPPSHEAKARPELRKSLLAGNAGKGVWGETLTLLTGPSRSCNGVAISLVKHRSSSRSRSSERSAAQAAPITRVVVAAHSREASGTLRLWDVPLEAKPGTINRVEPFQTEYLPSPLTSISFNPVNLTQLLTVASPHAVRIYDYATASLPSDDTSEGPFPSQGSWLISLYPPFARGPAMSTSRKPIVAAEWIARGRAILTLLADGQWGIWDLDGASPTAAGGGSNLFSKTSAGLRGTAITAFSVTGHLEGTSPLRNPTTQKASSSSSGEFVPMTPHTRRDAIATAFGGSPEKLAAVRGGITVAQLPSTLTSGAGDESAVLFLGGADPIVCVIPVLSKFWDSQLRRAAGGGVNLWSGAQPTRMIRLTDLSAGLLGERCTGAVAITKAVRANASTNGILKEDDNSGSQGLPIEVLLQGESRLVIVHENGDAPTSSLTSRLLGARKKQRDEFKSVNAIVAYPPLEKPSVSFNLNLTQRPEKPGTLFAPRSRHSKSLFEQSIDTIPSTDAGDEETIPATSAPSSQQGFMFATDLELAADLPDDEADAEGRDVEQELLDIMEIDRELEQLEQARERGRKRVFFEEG

[2] = biological target: the molecule itself
[3] = biological target: the molecule itself; remark: listed apart in the source

Molecule	stoichiometry N [2]	further results
C. thermophilum cytoplasmic filament nup complex (CFNC) (from UniProt G0S4F3 1-882; G0SBS8 1-1481; G0SBQ3 1-678; G0SAK3 1-993)	–	stoichiometry N [1]: 2
B1	4 and 5	–
B2	–	stoichiometry N [3]: 2
B3	2 and 4	–
